To fix the notation:
B1: mouse monoclonal antibody clone 1A8 (anti-DEFA5) [modified: Fc glycosylation, mainly the G1F glycoform (intact ESI-MS)] [mouse] / peptide No. 57 of the overlapping library, DEFA5 amino acids 61-75 (ARATCYCRTGRCATR) [human] (parent complex)
chain 1: QVQLQQSGAELVRPGASVKMSCKALGYTFFDYEMHWMKQTPVYGLEWIGAIHPGSGDTAYNQKFKGKATLTADKSSNTAYMELSSLTSEDSAVYYCTREGTVVAPFDYWGQGTTLTVSS
chain 2: DVLMTQTPLSLPVSLGDQASISCRSSQSIVHSNGNTYLEWYLQKPGQSPKLLINKVSNRFSGVPDRFSGSGSGTDFTLKISRVEAEDLGVYYCFQGSYVPYTFGGGTKLEIK
chain 3: ARATCYCRTGRCATR

This passage reports response results from article PMC12809912 (2025).

One assay covers variants of B1. Nature of the assay: indirect ELISA; parent: 2.2; read off a plot. (In general: ELISA stands for enzyme-linked immunosorbent assay.)
For chain 3 ARATCYCATGRCATR [chain 3 R8A], the response is approximately 1.8 OD450nm.
The same measure, in the same setting: the figure for chain 3 ARAACYCRTGRCATR [chain 3 T4A] is approximately 1.9 OD450nm; for chain 3 ARGTCYCRTGRCATR [chain 3 A3G] it is approximately 1.8 OD450nm; for chain 3 ARATCYCRTGRCGTR [chain 3 A13G] it is approximately 1.8 OD450nm.
The same measure, in the same setting: the figure for chain 3 ARATCYCRTGACATR [chain 3 R11A] is approximately 0.07 OD450nm.
The same measure, in the same setting: the figure for chain 3 ARATCYCRTGRCATA [chain 3 R15A] is approximately 2.2 OD450nm.
Take chain 3 ARATCYCRTARCATR [chain 3 G10A]: the response is approximately 1.9 OD450nm.
On the same count and under the same terms, the figure for chain 3 ARATCACRTGRCATR [chain 3 Y6A] is approximately 1.9 OD450nm; for chain 3 ARATCYCRTGRCAAR [chain 3 T14A] it is approximately 1.7 OD450nm; for chain 3 ARATCYCRAGRCATR [chain 3 T9A] it is approximately 1.7 OD450nm.
Consider chain 3 ARATCYCRTGRAATR [chain 3 C12A], for which the response is approximately 0.95 OD450nm.
On the same count and under the same terms, the figure for chain 3 ARATAYCRTGRCATR [chain 3 C5A] is approximately 1.9 OD450nm; for chain 3 AAATCYCRTGRCATR [chain 3 R2A] it is approximately 1.9 OD450nm.

Variants of B1 are the subject of a further assay. Nature of the assay: indirect ELISA; parent: 2.6; read off a plot.
chain 3 ARATCYCATGRCATR [chain 3 R8A]: the response is approximately 1.8 OD450nm.
For the variant chain 3 ARAACYCRTGRCATR [chain 3 T4A], the response was approximately 1.9 OD450nm.
Consider chain 3 ARGTCYCRTGRCATR [chain 3 A3G], for which the response is approximately 1.8 OD450nm.
Same read-out and setting: the figure for chain 3 ARATCYCRTGRCGTR [chain 3 A13G] is approximately 1.8 OD450nm; for chain 3 ARATCYCRTGACATR [chain 3 R11A] it is approximately 0.07 OD450nm; for chain 3 ARATCYCRTGRCATA [chain 3 R15A] it is approximately 2.6 OD450nm.
The same measure, in the same setting: the figure for chain 3 ARATCYCRTARCATR [chain 3 G10A] is approximately 1.9 OD450nm; for chain 3 ARATCACRTGRCATR [chain 3 Y6A] it is approximately 1.8 OD450nm; for chain 3 ARATCYCRTGRCAAR [chain 3 T14A] it is approximately 2 OD450nm.
The same measure, in the same setting: the figure for chain 3 ARATCYCRAGRCATR [chain 3 T9A] is approximately 1.9 OD450nm; for chain 3 ARATCYARTGRCATR [chain 3 C7A] it is approximately 1.2 OD450nm; for chain 3 ARATCYCRTGRAATR [chain 3 C12A] it is approximately 1.1 OD450nm.
For the variant chain 3 ARATAYCRTGRCATR [chain 3 C5A], the response is approximately 2 OD450nm.
Same read-out and setting: the figure for chain 3 AAATCYCRTGRCATR [chain 3 R2A] is approximately 1.9 OD450nm.
